The source of these data is paper PMC12459236.

In this assay the target is SpyTag-AP205 recombinant protein (self-assembled AP205 nanoparticles) (bacteriophage AP205). The assay is described as follows: SDS-PAGE of covalent coupling; purified ST-AP205 and CTD-SC mixed at designated molar ratios, left overnight at 4°C; covalent SpyTag-SpyCatcher coupling read by SDS-PAGE.

As for “PDCoV S1-CTD-SpyCatcher recombinant protein”, the rate of formation of CTDnps (ST-AP205:CTD-SC molar ratio 4:10) was more than 80%.
